Assay results reported in publication PMC3700353.

Substrate: N[C@@H](CC(=O)c1ccccc1NC=O)C(=O)O
Assay: purified protein
Assay type: biochemical, Drosophila melanogaster
Details: 50 mM potassium phosphate pH 7.4, 22 °C, 0.02–1.00 mM NFK

B1: KFase (kynurenine formamidase) (Drosophila melanogaster) (protein)
chain: MYNPRCKDLDRDYFPSYHTTRFQDQPEPNLAVLEHFVRVTKQHGRELTEKQGITVDHLRYGEGRQLVDVFYSEKTTNQAPLFVFVHGGYWQEMDMSMSCSIVGPLVRRGYRVAVMDYNLCPQVTLEQLMTQFTHFLNWIFDYTEMTKVSSLTFAGHSAGAHLLAQILMRPNVITAQRSKMVWALIFLCGVYDLRELSNLESVNPKNILGLNERNIESVSPMLWEYTDVTVWNSTKIYVVAAEHDSTTFIEQSRHYADVLRKKGYKASFTLFKGYDHFDIIEETAIDDSDVSRFLRNIEIE
Km: 320 ± 60 µM
kcat: 26.4 ± 4.45 s⁻¹
